Values quoted from earlier work in article PMC3267162.
Read-outs that look alike come from different tables or passages of the source.

Columns and labels:
PTPzeta (Homo sapiens) [1] = target: PTPzeta (Homo sapiens) (UniProt P23471)
LRP (Homo sapiens) = LRP (Homo sapiens) (UniProt Q07954)
PTPzeta (Homo sapiens) [2] = target: PTPzeta (Homo sapiens) (UniProt P23471); remark: listed apart in the source

Chain of UniProt P23471 (P23471 25-1636): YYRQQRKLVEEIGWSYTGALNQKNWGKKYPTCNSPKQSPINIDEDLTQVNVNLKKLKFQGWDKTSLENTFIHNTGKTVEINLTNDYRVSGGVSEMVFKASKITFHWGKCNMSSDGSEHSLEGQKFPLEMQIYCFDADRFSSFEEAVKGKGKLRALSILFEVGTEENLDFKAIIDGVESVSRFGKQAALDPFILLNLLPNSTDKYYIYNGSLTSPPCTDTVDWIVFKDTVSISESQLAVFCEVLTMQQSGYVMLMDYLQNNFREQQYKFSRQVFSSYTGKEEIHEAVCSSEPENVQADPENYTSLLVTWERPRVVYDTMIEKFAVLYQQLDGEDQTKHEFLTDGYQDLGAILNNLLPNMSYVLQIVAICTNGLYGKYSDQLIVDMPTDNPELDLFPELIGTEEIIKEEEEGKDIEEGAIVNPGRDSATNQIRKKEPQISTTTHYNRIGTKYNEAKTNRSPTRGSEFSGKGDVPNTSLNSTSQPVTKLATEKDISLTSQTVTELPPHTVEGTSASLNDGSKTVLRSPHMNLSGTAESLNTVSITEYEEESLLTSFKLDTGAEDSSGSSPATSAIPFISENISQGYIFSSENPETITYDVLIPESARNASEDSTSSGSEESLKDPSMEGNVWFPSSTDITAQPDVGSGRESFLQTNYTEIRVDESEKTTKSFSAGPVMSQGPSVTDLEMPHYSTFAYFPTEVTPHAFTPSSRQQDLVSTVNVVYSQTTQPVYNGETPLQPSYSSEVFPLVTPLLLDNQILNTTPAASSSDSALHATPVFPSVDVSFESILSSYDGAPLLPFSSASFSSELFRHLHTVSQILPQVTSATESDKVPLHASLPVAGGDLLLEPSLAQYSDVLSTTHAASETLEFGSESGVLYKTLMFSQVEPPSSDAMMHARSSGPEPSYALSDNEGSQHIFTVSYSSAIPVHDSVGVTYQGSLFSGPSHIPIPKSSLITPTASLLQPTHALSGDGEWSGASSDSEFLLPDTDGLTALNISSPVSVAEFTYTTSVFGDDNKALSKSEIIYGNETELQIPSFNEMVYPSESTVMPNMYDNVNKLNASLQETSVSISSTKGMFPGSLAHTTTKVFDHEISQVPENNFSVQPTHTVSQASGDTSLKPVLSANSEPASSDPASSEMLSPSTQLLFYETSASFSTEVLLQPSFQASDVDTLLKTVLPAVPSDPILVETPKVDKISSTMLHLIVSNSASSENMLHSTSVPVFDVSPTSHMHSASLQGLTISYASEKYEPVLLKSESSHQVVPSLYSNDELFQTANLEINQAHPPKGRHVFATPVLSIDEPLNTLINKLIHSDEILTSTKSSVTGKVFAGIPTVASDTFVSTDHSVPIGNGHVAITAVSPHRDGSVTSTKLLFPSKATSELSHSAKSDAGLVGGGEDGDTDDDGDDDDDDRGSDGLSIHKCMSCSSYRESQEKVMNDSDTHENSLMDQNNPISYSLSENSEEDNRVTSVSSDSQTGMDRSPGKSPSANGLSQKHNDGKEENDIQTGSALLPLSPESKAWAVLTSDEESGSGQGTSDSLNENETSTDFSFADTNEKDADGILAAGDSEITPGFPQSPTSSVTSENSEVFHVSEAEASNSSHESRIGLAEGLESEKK

Kd (PTPzeta (Homo sapiens) [1]): 8.8 nM
Kd (LRP (Homo sapiens)): 3.5 nM
Kd (PTPzeta (Homo sapiens) [2]): 0.58 nM
Substance: Midkine (from UniProt P21741)
